In article PMC7913688, “Human Rev1 relies on insert-2 to promote selective binding and accurate replication of stabilized G-quadruplex motifs”:

T1: hRev1 330-833 polymerase core (human, UniProt Q9UBZ9 330-833)
T1 sequence: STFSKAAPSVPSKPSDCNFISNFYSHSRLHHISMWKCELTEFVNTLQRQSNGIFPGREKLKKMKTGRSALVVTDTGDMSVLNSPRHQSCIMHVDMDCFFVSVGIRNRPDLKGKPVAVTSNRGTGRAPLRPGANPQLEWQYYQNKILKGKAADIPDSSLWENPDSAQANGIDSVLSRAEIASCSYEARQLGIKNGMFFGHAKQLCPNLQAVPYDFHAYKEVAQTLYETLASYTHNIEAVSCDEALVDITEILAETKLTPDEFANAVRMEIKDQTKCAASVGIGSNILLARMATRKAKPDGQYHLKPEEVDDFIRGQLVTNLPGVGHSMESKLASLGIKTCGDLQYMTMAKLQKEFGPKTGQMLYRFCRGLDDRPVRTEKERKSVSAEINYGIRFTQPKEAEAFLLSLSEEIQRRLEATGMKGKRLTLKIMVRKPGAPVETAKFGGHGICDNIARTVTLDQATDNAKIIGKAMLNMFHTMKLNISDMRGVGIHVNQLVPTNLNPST

T2: hRev1 full-length (human, UniProt Q9UBZ9 1-1251)
T2 sequence: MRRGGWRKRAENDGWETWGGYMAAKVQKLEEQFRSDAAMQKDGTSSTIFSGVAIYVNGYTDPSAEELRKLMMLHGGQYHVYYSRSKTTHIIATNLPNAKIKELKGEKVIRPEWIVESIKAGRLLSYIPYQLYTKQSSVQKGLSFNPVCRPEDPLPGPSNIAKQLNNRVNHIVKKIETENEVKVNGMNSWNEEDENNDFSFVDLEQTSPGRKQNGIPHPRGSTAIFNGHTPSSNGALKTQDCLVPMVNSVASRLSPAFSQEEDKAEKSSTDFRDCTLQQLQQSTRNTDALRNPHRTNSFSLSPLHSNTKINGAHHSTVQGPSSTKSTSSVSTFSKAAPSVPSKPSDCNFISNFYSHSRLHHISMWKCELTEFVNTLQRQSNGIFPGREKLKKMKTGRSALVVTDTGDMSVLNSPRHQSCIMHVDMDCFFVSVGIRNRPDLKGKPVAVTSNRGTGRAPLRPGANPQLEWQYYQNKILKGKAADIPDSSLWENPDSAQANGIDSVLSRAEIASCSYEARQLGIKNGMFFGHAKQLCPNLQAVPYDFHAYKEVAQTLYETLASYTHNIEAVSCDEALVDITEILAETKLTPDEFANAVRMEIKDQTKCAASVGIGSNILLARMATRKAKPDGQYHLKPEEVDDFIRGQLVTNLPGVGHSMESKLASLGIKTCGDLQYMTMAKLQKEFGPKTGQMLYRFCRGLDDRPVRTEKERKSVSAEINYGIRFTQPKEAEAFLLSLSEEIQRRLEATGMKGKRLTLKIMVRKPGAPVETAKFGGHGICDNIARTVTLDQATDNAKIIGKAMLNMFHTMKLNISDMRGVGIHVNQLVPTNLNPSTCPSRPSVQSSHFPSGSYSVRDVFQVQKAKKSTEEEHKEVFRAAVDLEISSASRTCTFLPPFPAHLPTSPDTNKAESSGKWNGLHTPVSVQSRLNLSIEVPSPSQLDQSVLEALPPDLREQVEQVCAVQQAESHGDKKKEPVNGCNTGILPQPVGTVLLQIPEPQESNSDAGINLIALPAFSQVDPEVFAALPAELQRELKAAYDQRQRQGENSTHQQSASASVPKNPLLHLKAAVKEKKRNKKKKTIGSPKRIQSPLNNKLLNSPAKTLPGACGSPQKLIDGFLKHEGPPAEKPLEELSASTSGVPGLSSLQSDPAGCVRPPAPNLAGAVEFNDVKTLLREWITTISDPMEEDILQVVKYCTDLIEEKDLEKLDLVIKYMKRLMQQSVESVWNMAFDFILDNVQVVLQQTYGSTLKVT

T3: hRev1 330-833 L358A (human, UniProt Q9UBZ9 330-833, L358A)
T3 sequence: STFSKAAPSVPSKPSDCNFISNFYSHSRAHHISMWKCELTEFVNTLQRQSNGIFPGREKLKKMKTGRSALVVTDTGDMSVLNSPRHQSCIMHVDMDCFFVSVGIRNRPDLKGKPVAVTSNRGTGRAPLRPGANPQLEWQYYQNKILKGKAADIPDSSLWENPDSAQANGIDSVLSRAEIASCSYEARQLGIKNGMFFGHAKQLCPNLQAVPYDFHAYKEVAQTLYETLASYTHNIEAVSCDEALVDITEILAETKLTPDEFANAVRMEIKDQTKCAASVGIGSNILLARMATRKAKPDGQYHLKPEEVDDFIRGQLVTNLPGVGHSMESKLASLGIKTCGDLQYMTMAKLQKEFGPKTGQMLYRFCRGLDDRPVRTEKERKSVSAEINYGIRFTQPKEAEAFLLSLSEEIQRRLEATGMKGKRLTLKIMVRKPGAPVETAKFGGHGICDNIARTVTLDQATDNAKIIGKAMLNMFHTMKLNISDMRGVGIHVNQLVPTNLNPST

B1: Myc 14/23 ss G4 (structured_DNA)
DNA: AGGGTGGGTAGGGTGGGTTATGAGATGAT
B2: Non-G4 Myc control ss (ssDNA)
DNA: AGCGTGCGTAGCGTGCGTTATGAGATGAT

Experiments:
Settings in all cases: protein: recombinant, label: 5'-FAM
[1] = molecular target: T1, hRev1 330-833 polymerase core; test: fluorescence polarization; 100 mM KCl; Fluorescence polarization: 1 nM FAM-DNA, 100 mM KCl or LiCl; DNA annealed in 50 mM HEPES pH 7.5; full buffer as in cited ref 17, temperature not stated. Footprinting: 50 mM HEPES pH 7.5, 100 mM KCl, 10 uM protein, 30 uM ssDNA, room temperature
hRev1 full-length = molecular target: T2, hRev1 full-length; test: as above
hRev1 330-833 L358A = molecular target: T3, hRev1 330-833 L358A; test: fluorescence polarization; 100 mM KCl?; Fluorescence polarization: 1 nM FAM-DNA, 100 mM KCl or LiCl; DNA annealed in 50 mM HEPES pH 7.5; full buffer as in cited ref 17, temperature not stated. Footprinting: 50 mM HEPES pH 7.5, 100 mM KCl, 10 uM protein, 30 uM ssDNA, room temperature
[2] = parallel G4 (1:2:1 loops) in K+

| Binder | Kd [1, 2] [nM] | Kd (hRev1 full-length; [2]) [nM] | Kd (hRev1 330-833 L358A; [2]) [nM] | Kd [1] [nM] | Kd (hRev1 full-length) [nM] | Kd (hRev1 330-833 L358A) [nM] |
| --- | --- | --- | --- | --- | --- | --- |
| B1 | 37 ± 7 | 5 ± 1 | 77 ± 8 | – | – | – |
| B2 | – | – | – | 910 ± 120 | 110 ± 20 | 660 ± 140 |
